Measured values: patent US20160215026A1

Legend:
[1] = molecular target: human immunoglobulin G drug separated from human plasma (human); assay: SPR, Biacore 3000, human IgG immobilized on CM5, peptide as analyte, 25 C, pH 7.4, 1:1 model
[2] = molecular target: human immunoglobulin G drug separated from human plasma (human); assay: SPR, Biacore 3000, human IgG immobilized; reference C-G29A/S33E.1d

Ka [1] [M⁻¹] | koff [1] [s⁻¹] | kon [1] [M⁻¹ s⁻¹] | affinity constant KA relative to C-G29A/S33E.1d [2] [fold] | Substance
5.7e+06 | 0.00519 | 29000 | 0.1 | C-G29A/S33E/K7E/H18D/V40D/A46D/Q55E.1d (designed binder)
3.9e+07 | 0.00709 | 276000 |  | C-G29A/S33E/K7E/A46E.1d (designed binder)
